These results are taken from article PMC10998906 (NPJ Vaccines, 2024).

The target in this assay is HA (NL03, A/Netherlands/213/2003(H3N2)) (Influenza A virus …, strain). The assay is described as follows: negative-stain EM. As to conditions: both partners purified.

B1: CR9114 Fab (Fab, V domains shown)
VH: QVQLVQSGAEVKKPGSSVKVSCKSSGGTSNNYAISWVRQAPGQGLDWMGGISPIFGSTAYAQKFQGRVTISADIFSNTAYMELNSLTSEDTAVYFCARHGNYYYYSGMDVWGQGTTVTVSS
VL: QSALTQPPAVSGTPGQRVTISCSGSDSNIGRRSVNWYQQFPGTAPKLLIYSNDQRPSVVPDRFSGSKSGTSASLAISGLQSEDEAEYYCAAWDDSLKGAVFGGGTQLTVL
In the case of B1, the “stoichiometry N” value was found to be 1 Fab per particle.

In general, stoichiometry N refers to the number of molecules, sites or subunits per partner or assembly.
